In publication PMC7949163:

Tests used:
[1] = target: Mutual gliding-motility protein B (MglB) (Myxococcus xanthus) (UniProt Q1DB03); experiment: SAXS; SAXSpace line collimation, 20 °C; MglB 25, 15, 10 mg/ml; MglC 35, 15, 20 mg/ml; MglBC and MglB^ΔCTC complexes freshly eluted from SEC
[2] = target: Mutual gliding motility protein C (MglC) (Myxococcus xanthus); experiment: as above
[3] = target: Mutual gliding-motility protein B (MglB) (Myxococcus xanthus) (UniProt Q1DB03); experiment: ITC; 25 °C; 50 μM MglB in the cell titrated with 500 μM MglC; one set of sites model; triplicates
[4] = target: Mutual gliding-motility protein B (MglB) (Myxococcus xanthus) (UniProt Q1DB03); experiment: SEC; analytical SEC, Superdex 200 Increase 10/300, 0.5 ml/min, A280; proteins alone or MglB:MglC mixed 1:1, 2:1 and 1:2; MglB mutants mixed with MglC 2:1
[5] = target: Mutual gliding motility protein C (MglC) (Myxococcus xanthus); experiment: as above
[6] = target: T1, Mutual gliding-motility protein B (MglB) (Myxococcus xanthus), Q1DB03; experiment: as above; conditions: remark: other sources report otherwise
T1 chain: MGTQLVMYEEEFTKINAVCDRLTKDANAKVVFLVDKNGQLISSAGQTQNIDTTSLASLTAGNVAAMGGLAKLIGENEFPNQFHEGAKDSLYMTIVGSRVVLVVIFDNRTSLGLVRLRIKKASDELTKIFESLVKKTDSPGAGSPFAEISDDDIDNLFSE

[7] = target: T1, Mutual gliding-motility protein B …; experiment: SAXS; SAXSpace line collimation, 20 °C; MglB 25, 15, 10 mg/ml; MglC 35, 15, 20 mg/ml; MglBC and MglB^ΔCTC complexes freshly eluted from SEC; conditions: remark: other sources report otherwise

Mutual gliding motility protein C (MglC) (natural protein)
stoichiometry N (MglC per MglB) [1]: 0.5
stoichiometry N [2]: 2
Kd [3]: 417 nM
dH [3]: 6.94 kcal/mol
stoichiometry N [3]: 0.51
stoichiometry N (MglC per MglB) [4]: 0.5
stoichiometry N [5]: 2

B1: Mutual gliding-motility protein B (MglB), Q1DB03 1-159 (natural protein)
chain: T1 chain
stoichiometry N [6]: 2
stoichiometry N [7]: 2
